Measurements as given in publication PMC4510971 (2015).

B1: UBN1(92–175) [human] / H3.3/H4 [human | X. laevis] (parent complex)
chain 1: NDEEKERHKVEALARKFEEKYGGKKRRKDRIQDLIDMGYGYDESDSFIDNSEAYDELVPASLTTKYGGFYINSGTLQFRQASES
chain 2: not shown
chain 3: not shown

Variants of: B1
Assay: fluorescence polarization competition binding; 10 nM FITC-UBN1(127–148), 6.5 μM H3.3/H4; 20 mM HEPES pH 7.5, 750 mM NaCl, 1 mM TCEP; parent: 1.66e+04 nM

| Variant | IC50 [µM] |
| --- | --- |
| chain 1 G40A | 19.9 |
| chain 1 D33A | 19.6 |
| chain 1 I35A | 13.8 |
| chain 1 D55A | 23 |
| chain 1 Q32A | 13.8 |
| chain 1 Y39A | 14.4 |
| chain 1 E52A | 29.3 |
| chain 1 Y54A | 16.4 |
| chain 1 A53I | 16.3 |
| chain 1 S46A | 16.2 |
| chain 1 L34A | 15.1 |
| chain 1 L57A | 19.6 |
| chain 1 M37A | 22.6 |
| chain 1 I31A | 16.9 |
| chain 1 G38A | 67.8 |
| chain 1 D36A | 21.1 |
| chain 1 E56A | 22.9 |
